Results published in article PMC5038981 (DNA repair, 2015).

Target: T1, GST-tagged Rad27 (S. cerevisiae, UniProt P26793 1-382)
T1 sequence (looked up): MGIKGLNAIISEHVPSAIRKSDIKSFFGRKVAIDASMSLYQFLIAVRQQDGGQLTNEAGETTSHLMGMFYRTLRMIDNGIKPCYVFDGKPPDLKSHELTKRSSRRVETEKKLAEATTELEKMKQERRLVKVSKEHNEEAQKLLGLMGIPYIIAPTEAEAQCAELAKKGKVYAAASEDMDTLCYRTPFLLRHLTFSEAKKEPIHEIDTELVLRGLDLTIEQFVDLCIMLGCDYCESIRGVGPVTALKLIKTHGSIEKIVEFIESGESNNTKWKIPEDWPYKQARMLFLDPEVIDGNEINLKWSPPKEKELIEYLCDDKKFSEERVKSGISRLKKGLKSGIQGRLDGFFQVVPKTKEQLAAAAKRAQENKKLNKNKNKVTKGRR
Test: pull-down

binding result: binds
B1: his-tagged Nej1 C-terminal fragment (residues 129-343) (domain or fragment, S. cerevisiae, UniProt Q06148 129-342, looked up)
chain: MFYMILQSLCMLLLKLVNLSTQYHYVQRDILNEKQKCLDFLLISLRDLDGGSKVISQWAPENSKNYESLQQCTDDDIIKKLLHKGKFQHQEFLADSLKTLLSLRNKFQDVSRFEESGELNKKERVRFPAVNHFYNDDFELQADPTNEARPNSRGKIKPKTDFKPKSRESSTSSQLRLENFSESEATPEKTKSSSSLVEEYPQKKRKFGKVRIKN
